Literature values as cited in paper PMC5337993.

Biological target: Kv1.3 (Homo sapiens) (UniProt P22001)
UniProt P22001, sequence (P22001 whole entry): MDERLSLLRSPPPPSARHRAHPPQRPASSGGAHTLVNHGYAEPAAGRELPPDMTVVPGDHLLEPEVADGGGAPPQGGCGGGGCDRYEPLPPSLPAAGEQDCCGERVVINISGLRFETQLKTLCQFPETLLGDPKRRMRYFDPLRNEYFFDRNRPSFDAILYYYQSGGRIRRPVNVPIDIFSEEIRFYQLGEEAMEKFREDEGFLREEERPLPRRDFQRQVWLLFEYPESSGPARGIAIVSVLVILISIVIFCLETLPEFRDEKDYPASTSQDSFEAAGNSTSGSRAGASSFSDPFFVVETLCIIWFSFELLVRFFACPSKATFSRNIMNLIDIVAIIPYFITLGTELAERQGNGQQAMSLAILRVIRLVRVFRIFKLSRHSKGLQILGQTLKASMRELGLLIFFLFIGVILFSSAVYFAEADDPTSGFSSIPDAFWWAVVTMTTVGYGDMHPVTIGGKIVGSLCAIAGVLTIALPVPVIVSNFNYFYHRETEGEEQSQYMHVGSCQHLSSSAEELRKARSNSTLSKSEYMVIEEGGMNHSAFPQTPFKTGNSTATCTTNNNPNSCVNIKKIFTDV

## ShK (from UniProt P29187)
  Kd: 0.01 nM
